# From US20170298124A1, “ANTIBODIES AGAINST PATHOLOGICAL FORMS OF TDP-43 AND USES THEREOF” (Academia Sinica, published 2017)
# Columns and labels:
# [1] = molecular target: TDP-43 full-length (oligomers) (Homo sapiens, UniProt Q13148 Q13148:1-414); test: intrinsic fluorescence titration (ex 280, em 350 nm), 1.5 uM protein, 30 mM Tris-HCl pH 8; residual binding may come from minor monomer population; conditions: chain copies: oligomer (stated); 1:1 stoichiometry of TDP-43 and ssDNA from fit
# [2] = molecular target: TDP-43s short-form TDP-43 (RRM1-RRM2) (Mus musculus, UniProt Q921F2 Q921F2:101-265); test: intrinsic fluorescence titration (ex 280, em 350 nm), 1.5 uM protein, 30 mM Tris-HCl pH 8; conditions: tags: prepared per Kuo et al 2009
# TDP-43 full-length (oligomers), sequence (Q13148 whole entry, one chain of several): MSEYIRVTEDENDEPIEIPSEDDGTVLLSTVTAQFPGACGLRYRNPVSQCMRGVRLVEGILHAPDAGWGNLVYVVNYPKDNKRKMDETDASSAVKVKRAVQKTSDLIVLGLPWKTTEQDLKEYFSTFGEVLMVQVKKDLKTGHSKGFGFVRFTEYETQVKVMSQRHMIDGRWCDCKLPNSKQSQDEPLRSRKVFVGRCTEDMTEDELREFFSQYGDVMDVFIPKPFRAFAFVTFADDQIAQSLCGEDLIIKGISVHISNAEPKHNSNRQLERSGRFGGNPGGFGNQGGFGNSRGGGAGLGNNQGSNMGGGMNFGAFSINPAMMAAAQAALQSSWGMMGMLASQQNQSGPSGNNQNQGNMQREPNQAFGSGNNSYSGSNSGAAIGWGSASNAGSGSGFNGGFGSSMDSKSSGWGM
Binder,Kd [1] [µM],Kd [2] [µM]
CTTTTTGCCTGT (ssDNA) [TAR DNA A-site],7.05,0.2
TGGGTCTCTCTG (ssDNA) [TAR DNA B-site],6.27,0.38
